# In patent publication US20250043302A1, “MUTATED HYDROXYPHENYLPYRUVATE DIOXYGENASE POLYPEPTIDE, AND CODING GENE AND USE THEREOF” (BEIJING DABEINONG BIOTECHNOLOGY CO., LTD., priority 2021, published 2025):
# What was measured:
# Assay type in all cases: in vivo
# [1] = test system: Arabidopsis thaliana T1 plants; assay: Topramezone tolerance of transgenic Arabidopsis thaliana T1 plants (spray, bleached leaf area grade, damage score); details: for Classification and statistics of the grade of pesticide damage Grade 0: number of plants at grade 0; for Classification and statistics of the grade of pesticide damage Grade 1: number of plants at grade 1; for Classification and statistics of the grade of pesticide damage Grade 2: number of plants at grade 2; for Classification and statistics of the grade of pesticide damage Grade 3: number of plants at grade 3; for Classification and statistics of the grade of pesticide damage: Grade 0 / Classification and statistics of the grade of pesticide damage: Grade 1 / Classification and statistics of the grade of pesticide damage: Grade 2 / Classification and statistics of the grade of pesticide damage: Grade 3: number of plants
# Outline: (§1)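 Read-out: per-plant damage grade 0–3 from proportion of bleached leaf area at 7 DAT (1 <50%, 2 >50%, 3 100%). Plants were T1 transformants, glufosinate-selected, plus wild-type CK, sprayed 18 days post-sowing. Rates: topramezone 25–200, isoxaflutole 35–280, mesotrione 52.5–420 g ai/ha.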
# [2] = test system: Arabidopsis thaliana T1 plants; assay: Isoxaflutole tolerance of transgenic Arabidopsis thaliana T1 plants (spray, bleached leaf area grade, damage score); set-up: Scores (pesticide damage): scale not given here; details: for Classification and statistics of the grade of pesticide damage: Grade 0 (number of plants) / Classification and statistics of the grade of pesticide damage: Grade 1 (number of plants) / Classification and statistics of the grade of pesticide damage: Grade 2 (number of plants) / Classification and statistics of the grade of pesticide damage: Grade 3 (number of plants): 16 plants; for Classification and statistics of the grade of pesticide damage Grade 0 / Classification and statistics of the grade of pesticide damage Grade 1 / Classification and statistics of the grade of pesticide damage Grade 2 / Classification and statistics of the grade of pesticide damage Grade 3: number of plants in grade
# Outline: as §1
# [3] = test system: Arabidopsis thaliana T1 plants; assay: Mesotrione tolerance of transgenic Arabidopsis thaliana T1 plants (spray, bleached leaf area grade, damage score); set-up: Scores: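 damage score 0-100 computed as Σ(N×S)/(T×M)×100 over grades 0-3 with higher meaning more damage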; details: for Grade 0 (classification and statistics of the grade of pesticide damage; number of plants) / Grade 1 (classification and statistics of the grade of pesticide damage; number of plants) / Grade 2 (classification and statistics of the grade of pesticide damage; number of plants) / Grade 3 (classification and statistics of the grade of pesticide damage; number of plants): 16 plants; for Classification and statistics of the grade of pesticide damage Grade 0 / Classification and statistics of the grade of pesticide damage Grade 1 / Classification and statistics of the grade of pesticide damage Grade 2 / Classification and statistics of the grade of pesticide damage Grade 3: number of plants in grade
# Outline: as §1
# [4] = Table 13, topramezone 25 g ai/ha (1×)
# [5] = Table 13, topramezone 100 g ai/ha (4×)
# [6] = topramezone 25 g ai/ha (1×), 7 DAT, Table 4
# [7] = topramezone 100 g ai/ha (4×), 7 DAT, Table 4
# [8] = isoxaflutole 35 g ai/ha (0.5x field concentration), spray, Arabidopsis thaliana T1 plants
# [9] = isoxaflutole 70 g ai/ha (1x field concentration), spray, Arabidopsis thaliana T1 plants
# [10] = mesotrione 52.5 g ai/ha, Arabidopsis thaliana T1 plants
# [11] = mesotrione 105 g ai/ha, Arabidopsis thaliana T1 plants
molecule,measurement,setting,value
"AtHPPDm-F372A-02: nucleotide sequence encoding Arabidopsis thaliana HPPD with F372A; vector DBN11731 (nucleic acid, AtHPPDm-F372A-02 Nucleotide Sequence, vector DBN11731) DNA: ATGGGACATCAGAATGCTGCTGTATCAGAAAATCAAAATCATGATGATGGAGCCGCCTCCTCACCAGGGTTTAAGTTGGTTGGGTTCTCCAAGTTTGTACGGAAGAACCCAAAATCCGACAAGTTCAAGGTTAAACGCTTCCACCACATTGAATTCTGGTGCGGCGACGCCACCAATGTTGCTCGGCGTTTTTCATGGGGTTTAGGCATGAGATTCTCAGCAAAGAGTGACCTGAGCACCGGCAACATGGTTCATGCTAGCTATCTCTTAACATCTGGAGATTTGAGGTTTCTTTTCACGGCGCCGTACTCACCATCACTCTCCGCCGGCGAGATCAAACCCACCACGACTGCAAGCATACCTTCATTTGATCATGGTAGTTGCAGATCCTTCTTCTCGTCGCACGGCCTAGGGGTGCGCGCGGTCGCCATCGAAGTTGAAGATGCAGAATCAGCGTTTAGTATCAGCGTGGCAAATGGAGCTATTCCTTCCTCCCCTCCAATTGTCCTCAATGAGGCTGTAACTATTGCCGAGGTGAAGTTGTATGGAGATGTTGTGCTGAGATATGTTTCTTACAAGGCAGAGGACACTGAGAAATCTGAATTTTTGCCTGGTTTTGAAAGGGTCGAGGATGCTTCAAGTTTTCCTCTTGATTACGGCATACGACGGTTGGATCACGCGGTTGGAAATGTACCAGAACTTGGGCCGGCGCTCACTTATGTGGCTGGTTTCACTGGATTCCATCAATTTGCTGAGTTCACAGCTGATGATGTTGGGACTGCTGAAAGTGGGTTGAACTCTGCAGTCCTCGCCTCTAATGATGAAATGGTGCTCCTCCCGATCAACGAGCCTGTGCATGGCACCAAAAGGAAATCACAAATACAGACATATCTTGAGCACAATGAAGGTGCAGGGCTTCAACATCTTGCACTGATGTCTGAAGACATTTTCCGTACGCTGAGAGAGATGAGGAAGAGAAGTAGTATTGGTGGATTTGACTTCATGCCTTCTCCCCCACCAACTTACTACCAGAACTTGAAGAAGAGGGTTGGTGATGTGCTATCTGATGACCAGATCAAGGAGTGTGAAGAATTGGGCATTCTTGTTGATCGGGACGACCAAGGAACATTACTGCAGATAGCCACAAAACCACTTGGTGACCGCCCCACTATTTTTATTGAGATCATACAAAGAGTCGGCTGCATGATGAAGGATGAGGAAGGAAAAGCATATCAATCTGGTGGTTGTGGCGGCTTTGGGAAAGGAAACTTCTCTGAGCTGTTCAAATCCATCGAGGAGTATGAGAAGACCTTGGAGGCCAAGCAGCTCGTGGGTTGA",Resistance evaluation,[1]; [4],Poorly
same,Classification and statistics of the grade of pesticide damage Grade 0,[1]; [4],4
same,Classification and statistics of the grade of pesticide damage Grade 1,[1]; [4],4
same,Classification and statistics of the grade of pesticide damage Grade 2,[1]; [4],8
same,Classification and statistics of the grade of pesticide damage Grade 3,[1]; [4],0
same,Scores,"[1]; Table 13, topramezone 25 g ai/ha (1×), pesticide damage score",42
same,Resistance evaluation,[1]; [5],Non-resistant
same,Classification and statistics of the grade of pesticide damage Grade 0,[1]; [5],0
same,Classification and statistics of the grade of pesticide damage Grade 1,[1]; [5],0
same,Classification and statistics of the grade of pesticide damage Grade 2,[1]; [5],4
same,Classification and statistics of the grade of pesticide damage Grade 3,[1]; [5],12
same,Scores,"[1]; Table 13, topramezone 100 g ai/ha (4×), pesticide damage score",92
same,Classification and statistics of the grade of pesticide damage: Grade 0,[1]; [6],4
same,Classification and statistics of the grade of pesticide damage: Grade 1,[1]; [6],4
same,Classification and statistics of the grade of pesticide damage: Grade 2,[1]; [6],8
same,Classification and statistics of the grade of pesticide damage: Grade 3,[1]; [6],0
same,Classification and statistics of the grade of pesticide damage: Grade 0,[1]; [7],0
same,Classification and statistics of the grade of pesticide damage: Grade 1,[1]; [7],0
same,Classification and statistics of the grade of pesticide damage: Grade 2,[1]; [7],4
same,Classification and statistics of the grade of pesticide damage: Grade 3,[1]; [7],12
same,Scores,"[1]; pesticide damage score 0-100, topramezone 25 g ai/ha (1×), 7 DAT, Table 4",42
same,Scores,"[1]; pesticide damage score 0-100, topramezone 100 g ai/ha (4×), 7 DAT, Table 4",92
same,Resistance evaluation,[1]; [6],poorly
same,Resistance evaluation,[1]; [7],non-resistant (non-resistant plants (scores 68-100))
same,Resistance evaluation,[2]; isoxaflutole 35 g ai/ha,Poorly
same,Scores,[2]; isoxaflutole 35 g ai/ha,52
same,Resistance evaluation,[2]; [8],Poorly
same,Scores (pesticide damage),[2]; [8],52
same,Classification and statistics of the grade of pesticide damage: Grade 0 (number of plants),[2]; [8],0
same,Classification and statistics of the grade of pesticide damage: Grade 1 (number of plants),[2]; [8],9
same,Classification and statistics of the grade of pesticide damage: Grade 2 (number of plants),[2]; [8],5
same,Classification and statistics of the grade of pesticide damage: Grade 3 (number of plants),[2]; [8],2
same,Classification and statistics of the grade of pesticide damage Grade 0,[2]; isoxaflutole 35 g ai/ha,0
same,Classification and statistics of the grade of pesticide damage Grade 1,[2]; isoxaflutole 35 g ai/ha,9
same,Classification and statistics of the grade of pesticide damage Grade 2,[2]; isoxaflutole 35 g ai/ha,5
same,Classification and statistics of the grade of pesticide damage Grade 3,[2]; isoxaflutole 35 g ai/ha,2
same,Resistance evaluation,[2]; isoxaflutole 70 g ai/ha,Non-resistant
same,Scores,[2]; isoxaflutole 70 g ai/ha,96
same,Resistance evaluation,[2]; [9],Non-resistant
same,Scores (pesticide damage),[2]; [9],96
same,Classification and statistics of the grade of pesticide damage: Grade 0 (number of plants),[2]; [9],0
same,Classification and statistics of the grade of pesticide damage: Grade 1 (number of plants),[2]; [9],0
same,Classification and statistics of the grade of pesticide damage: Grade 2 (number of plants),[2]; [9],2
same,Classification and statistics of the grade of pesticide damage: Grade 3 (number of plants),[2]; [9],14
same,Classification and statistics of the grade of pesticide damage Grade 0,[2]; isoxaflutole 70 g ai/ha,0
same,Classification and statistics of the grade of pesticide damage Grade 1,[2]; isoxaflutole 70 g ai/ha,0
same,Classification and statistics of the grade of pesticide damage Grade 2,[2]; isoxaflutole 70 g ai/ha,2
same,Classification and statistics of the grade of pesticide damage Grade 3,[2]; isoxaflutole 70 g ai/ha,14
same,Resistance evaluation,[3]; mesotrione 52.5 g ai/ha,Poorly resistant
same,Scores,[3]; mesotrione 52.5 g ai/ha,63
same,Resistance evaluation,[3]; [10],Poorly resistant
same,Scores,[3]; [10],63
same,Grade 0 (classification and statistics of the grade of pesticide damage; number of plants),[3]; [10],0
same,Grade 1 (classification and statistics of the grade of pesticide damage; number of plants),[3]; [10],5
same,Grade 2 (classification and statistics of the grade of pesticide damage; number of plants),[3]; [10],8
same,Grade 3 (classification and statistics of the grade of pesticide damage; number of plants),[3]; [10],3
same,Classification and statistics of the grade of pesticide damage Grade 0,[3]; mesotrione 52.5 g ai/ha,0
same,Classification and statistics of the grade of pesticide damage Grade 1,[3]; mesotrione 52.5 g ai/ha,5
same,Classification and statistics of the grade of pesticide damage Grade 2,[3]; mesotrione 52.5 g ai/ha,8
same,Classification and statistics of the grade of pesticide damage Grade 3,[3]; mesotrione 52.5 g ai/ha,3
same,Resistance evaluation,[3]; mesotrione 105 g ai/ha,Non-resistant
same,Scores,[3]; mesotrione 105 g ai/ha,100
same,Resistance evaluation,[3]; [11],Non-resistant
same,Scores,[3]; [11],100
same,Grade 0 (classification and statistics of the grade of pesticide damage; number of plants),[3]; [11],0
same,Grade 1 (classification and statistics of the grade of pesticide damage; number of plants),[3]; [11],0
same,Grade 2 (classification and statistics of the grade of pesticide damage; number of plants),[3]; [11],0
same,Grade 3 (classification and statistics of the grade of pesticide damage; number of plants),[3]; [11],16
same,Classification and statistics of the grade of pesticide damage Grade 0,[3]; mesotrione 105 g ai/ha,0
same,Classification and statistics of the grade of pesticide damage Grade 1,[3]; mesotrione 105 g ai/ha,0
same,Classification and statistics of the grade of pesticide damage Grade 2,[3]; mesotrione 105 g ai/ha,0
same,Classification and statistics of the grade of pesticide damage Grade 3,[3]; mesotrione 105 g ai/ha,16
